The values below come from US7838495B2, “Compositions and methods of use of EPB1, and ErbB3 binding protein” (University of Maryland, Baltimore, priority 2007, dated 2010).

The subject of one assay is AR-regulated genes. Nature of the assay: Validation by real-time RT-PCR, Western blot and ELISA in LNCaP EPB1 transfectants. Type of assay: cell-based, human. Here is the method: Real-Time Quantitative Reverse-Transcription PCR: The method of […] et al. (Nakanishi et al., 2003, Quantitative Analysis of Breast Cancer Resistance Protein and Cellular Resistance to Flavopiridol in Acute Leukemia Patients, Clin. Cancer Res., 9: 3320-3328) was used as previously described. […] Real-time quantitative RT-PCR was then performed on the LightCycler (Roche, Indianapolis, Ind.) platform to determine the relative mRNA levels of EPB1, AR, kallikrein-2 and POV-1. The following forward and reverse primers were selected using Primer Express software and synthesized by Core Laboratory of University of Maryland School of Medicine: EPB1, sense: [NT] ID NO: 4) and antisense: [NT] ID NO: 5), sense: [NT] ID NO: 6) and antisense: [NT] ID NO: 7), Kallikrein-2, sense: [NT] ID NO: 8) and antisense: [NT] ID NO: 9), POV-1, sense: [NT] ID NO: 10) and antisense: [NT] ID NO: 11), Actin, sense: [NT] ID NO: 12) and antisense […] ID NO: 13). […] Target mRNA values were normalized using actin mRNA as an internal control. The relative quantitation of gene expression was performed using the comparative ΔΔ Ct (threshold method) using β-actin as an internal control ([…] et al., 2002, The Nonsteroidal Anti-Inflammatory Drug Sulindac Causes Down-Regulation of Signal Transducer and Activator of Transcription 3 in Human Oral Squamous Cell Carcinoma Cells, Cancer Research, 62:1004-1007). Western Blot Analysis: Briefly, total cell extracts were prepared by direct lysis of cells with buffer containing 50 mM Tris-HCl (pH 7.4), 1 mM EDTA, 250 mM NaCl, 1% Triton® X-100, 0.5 mM dithiothreitol (DTT) and 1 mM phenylmethylsulfonyl (PMSF). Protein concentrations were measured using a detergent compatible kit (BioRad, Hercules, Calif.). Proteins were resolved by SDS-PAGE and analyzed by Western blotting as described (Xia et al., 2001, Analysis of the Expression Pattern of EPB1, an ErbB-3-Binding Protein, Biochem. Biophys. Res. Commun., 289:240-244). The AR antibody was from Santa Cruz Biotechnology (Santa Cruz, Calif.), the EPB1 antibody from Upstate (Lake Placid, N.Y.), the polyclonal antibody to actin from Sigma (St. Louis, Mo.), and the POV-1 antibody was a gift. Measurement of PSA levels: Serum PSA levels were determined using a PSA ELISA kit from DSL, Inc (Webster, Tex.). […] Following a 1 h incubation and extensive washing of the plate, the wells were treated for 30 min with a second anti-PSA antibody labeled with horseradish peroxidase. After washing, the wells were treated with a tetramethylbendizine substrate for 10 min, and absorbance was read at 450 nm. The results of the microarray analysis were validated using real-time quantitative reverse-transcription PCR, Western blot, and ELISA methods. […] PSA secretion in the conditioned media of EPB1 and vector control cells was assessed by ELISA.
For orientation: In qPCR the cycle at which signal appears reflects the starting amount.

A further assay relates to Androgen Regulated Genes. Description: Microarray analysis of EBP1 and vector transfected C81 cells. The note with it: EBP1 transfected C81 cells vs vector control. Type of assay: cell-based, human. Here is the method:
Microarray Analysis and Bioinformatics. RNA was prepared using the Trizol Reagent as previously described (8). Microarray processing and data analysis was performed at Genome Explorations (Nashville, Tenn.). U133A oligonucleotide arrays (Affymetrix) containing ˜33,000 full length annotated genes together with additional probe sets designed to represent EST sequences were used for the analysis. Only genes with a minimum expression level of 500 were included in this analysis. […] Oncomine analyses were performed by using Oncomine 3.0 (www.oncomine.org). Real Time Quantitative Reverse-Transcription PCR. Both cell culture samples and a commercial panel of cDNAs from normal prostate and prostate tumors (TissueScan, Origene, Rockville, Md.) were examined. The method of Nakanishi et al. (15) was used as previously described. Real-time quantitative RT-PCR was performed on the LightCycler® (Roche) platform. The following forward and reverse primers were selected using Primer Express software and synthesized by the Core Laboratory of University of Maryland School of Medicine: Ebp1, sense: 5′-GCA CGC CAA TAG AAG G-3′ (SEQ ID NO: 16) and antisense: 5′-GTA AAC GGC ATG GCA TC-3′ (SEQ ID NO: 17) kallikrein-2 sense: 5′-CAT CCA GTC TCG GAT TG-3′ (SEQ ID NO: 18) and antisense: 5′-CTC ATA TTG TAG AGC GGG T-3′ (SEQ ID NO: 19), TSPY, sense: 5′-CAGGGCTTCTCATTCCACTC-3′ (SEQ ID NO: 20) and antisense: 5′-CCATCATATTCAACTCAACAA CTGG-3′ (16; SEQ ID NO: 21), AGR2, sense: 5′-ATTGGCAGAGCAGTTTCTCC-3′ (SEQ ID NO: 22) and antisense, 5′-GAGCTGTATCTGCAGGTTCGT (17; SEQ ID NO: 23) 13-Actin, sense: 5′-GCTATCCAGGCTGTGCTATC-3′ (SEQ ID NO: 24) and antisense 5′-TGT CAC GCA CGA TTT CC-3′ (SEQ ID NO: 25). A SYBR®Green PCR Kit was used as per the manufacturer's instructions (Applied Biosystems, Foster City, Calif.) and the analyses were performed in duplicate or triplicate.

B1: EBP1: ErbB3 binding protein (SEQ ID NO: 2), AR corepressor, here ectopically expressed in cancer cells by stable transfection of an expression plasmid (protein, listed as Homo sapiens)
chain: MSGEDEQQEQTIAEDLVVTKYKMGGDIANRVLRSLVEASSSGVSVLSLCEKGDAMIMEETGKIFKKEKEMKKGIAFPTSISVNNCVCHFSPLKSDQDYILKEGDLVKIDLGVHVDGFIANVAHTFVVDVAQGTQVTGRKADVIKAAHLCAEAALRLVKPGNQNTQVTEAWNKVAHSFNCTPIEGMLSHQLKQHVIDGEKTIIQNPTDQQKKDHEKAEFEVHEVYAVDVLVSSGEGKAKDAGQRTTIYKRDPSKQYGLKMKTSRAFFSEVERRFDAMPFTLRAFEDEKKARMGVVECAKHELLQPFNVLYEKEGEFVAQFKFTVLLMPNGPMRITSGPFEPDLYKSEMEVQDAELKALLQSSASRKTQKKKKKKASKTAENATSGETLEENEAGD
modifications: FLAG tag
Take B1: in the assay with AR-regulated genes (LNCaP EPB1 transfectants), the “POV-1 mRNA decrease” value is listed as “about two-fold”, the POV-1 protein decrease result is “about two-fold” and the “kallikrein-2 mRNA expression decrease” value is “approximately 40%”. Besides, the AR protein decrease result with AR-regulated genes (LNCaP EPB1 transfectants, Western blot) is “more than five-fold”. Also, the “AR mRNA down-regulation” value in the assay with AR-regulated genes (LNCaP EPB1 transfectants, real-time PCR) is given as “more than 2 fold”. For the same molecule, the “secreted PSA protein downregulation” value with AR-regulated genes (conditioned media of LNCaP EPB1 transfectants vs controls, ELISA) amounted to 10 fold. Moreover, in the assay with Androgen Regulated Genes, the “Fold Decrease, AGR2” value turned out to be 7.1; the “Fold Decrease, Androgen regulated serine protease TMPRSS2” value was 4.0; the “Fold Decrease, Prostate Cancer overexpressed POV” value came out at 5; the “Fold Decrease, Prostate Differentiation Factor mRNA” value is on record as 5.4. In the assay on Androgen Regulated Genes, the “Fold Decrease, Prostate Specific Antigen” value came out at 5.5; the “Fold Decrease, Prostatic Kallikrein 2” value stood at 5.4; the “Fold Decrease, TSPY” value is recorded as 9.5.
